Results from patent US20170253656A1 (SUTRO BIOPHARMA, published 2017).
Substitutions are numbered along the chain they refer to.

T1: hu-CD74 antigen (R&D SYSTEMS catalog #3590-CD-050) (human, UniProt P04233-2 73-232, limits assumed)
T1 construct: Bought antigen; also called rhCD74; human CD74
T1 sequence (looked up): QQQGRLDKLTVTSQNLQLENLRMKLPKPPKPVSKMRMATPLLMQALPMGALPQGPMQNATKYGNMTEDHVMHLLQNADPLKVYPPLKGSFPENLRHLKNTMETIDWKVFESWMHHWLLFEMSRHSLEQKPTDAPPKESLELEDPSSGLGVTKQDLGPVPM

B1: 1193-C08 (scFv)
scFv: EVQLLESGGGLVQPGGSLRLSCAASGFTFNNNWMSWVRQAPGKGLEWVGIINGDDGYTYYADRVKGRFTIIRDNSKNTLYLQMNSLRAEDTAVYYCAKVALGRPRRFDYWGQGTLVTVSSGGGGSGGGGSGGGGSEIVLTQSPGTLSLTPGERATLSCRASQSVSSNYLAWYQQKPGQAPRLLIYGASSRATGIPDRFSGSGSGTDFTLTISRLEPEDFAMYYCQQHYTTPPTFGQGTKVEIK
notes: Called scFv clone
B2: 1193-E06b (scFv)
scFv: EVQLLESGGGLVQPGGSLRLSCAASGFTFNNTDMSWVRQAPGKGLEWVGIINGSGGATNYADSVKGRFTISRDNSKNTLYLQMNSLRAEDTAVYYCAKFENEWEVSMDYWGQGTLVTVSSGGGGSGGGGSGGGGSEIVLTQSPGTLSLSPGERATLSCRASQSVSSSYLAWYQQKPGQAPRLLIYGASSRATGIPDRFSGSGSGTDFTLTISRLEPEDFAVYYCQQHYTTPPTFGQGTKVEIK
notes: Called scFv clone
B3: 1193-H04b (scFv)
scFv: EVQLLESGGGLVQPGGSLRLSCAASGFTFTSSWMSWVRQAPGKGLEWVGIINGYNGITYYADSVKGRFTISRDNSKNTLYLQMNSLRAEDTAVYYCAKPSAPGARRFDYWGQGTLVTVSSGGGGSGGGGSGGGGSEIVLTQSPGTLSLSPGEATLSCRASQSVSSSYLAWYQQRPGQAPRLLIYGASSRATGIPDRFSGSGSGTDFTLTISRLEPEDFAVYYCQQHYTTPPTFGQGTKVEIK
notes: Called scFv clone
B4: 1193-B06 (scFv)
scFv: EVQLLESGGGLVQPGGSLRLSCAASGFTFTGNWMSWVRQAPGKGLEWVGIIYGTSGATYYADSVKGRFTISRDNSKNTLYLQMNSLRAEDTAVYYCAKPSMSGSRGFDYWGQGTLVTVSSGGGGSGGGGSGGGGSEIVLTQSPGTLSLSPGERATLSCRAGQSVSSSYLAWYQQKPGQAPRLLIYGASSRATGIPDRFSGSGSGTDFTLTISRLEPEDFAVYYCQQHYTTPPTFGQGTKVEIK
notes: Called scFv clone; VH3-23 / Vk3-A27; Biacore capture was on anti-human Fc, so an Fc may have been attached
B5: 1198-A01 paired with trastuzumab LC (Fab, V domains shown)
VH: EVQLVESGGGLVQPGGSLRLSCAASGFTFSDYDMSWVRQAPGKGLEWVGFIAQDGSYKYYVDSVKGRFTISRDNAKNSLYLQMNSLRAEDTAVYYCARSKLFRAGQFDYWGQGTLVTVSS
VL: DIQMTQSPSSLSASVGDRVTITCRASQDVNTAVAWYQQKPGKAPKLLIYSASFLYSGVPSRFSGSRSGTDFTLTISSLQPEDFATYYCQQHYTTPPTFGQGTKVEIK
notes: Called Fab clone
B6: 1198-D03 paired with trastuzumab LC (Fab, V domains shown)
VH: EVQLVESGGGLVQPGGSLRLSCAASGFNINNYDIHWVRQAPGKGLEWVANIDPYNGATYYADSVKGRFTISADTSKNTAYLQMNSLRAEDTAVYYCARVLWGFWAPFDYWGQGTLVTVSS
VL: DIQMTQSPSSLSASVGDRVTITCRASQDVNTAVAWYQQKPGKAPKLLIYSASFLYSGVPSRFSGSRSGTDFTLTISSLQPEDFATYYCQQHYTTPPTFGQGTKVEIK
notes: Called Fab clone
B7: 1198-D04 paired with trastuzumab LC (Fab, V domains shown)
VH: B6 VH with A57T, L100P
VL: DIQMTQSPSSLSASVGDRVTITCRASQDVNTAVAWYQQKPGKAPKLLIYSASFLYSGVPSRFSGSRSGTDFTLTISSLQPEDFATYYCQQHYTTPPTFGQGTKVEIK
notes: Called Fab clone
B8: 1198-B10 paired with trastuzumab LC (Fab, V domains shown)
VH: EVQLVESGGGLVQPGGSLRLSCAASGFNISGSWIHWVRQAPGKGLEWVGYIYPDDGDTYYADSVKGRFTISADTSKNTAYLQMNSLRAEDTAVYYCAREGSHNLDKMDYWGQGTLVTVSS
VL: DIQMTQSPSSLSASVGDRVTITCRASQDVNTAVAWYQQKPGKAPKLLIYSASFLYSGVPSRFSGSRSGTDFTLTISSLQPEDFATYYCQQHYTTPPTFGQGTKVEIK
notes: Called Fab clone
B9: 1275-C10 light chain paired with HC 1251-A06 (SEQ ID NO: 310) (antibody)
heavy: not shown
VL: DIQMTQSPSSLSASVGDRVTITCRASQGVSSWLAWYQQKPEKAPKSLIYSARYLQSGVPSRFSGSGSGTDFTLTISSLQPEDFATYYCQQYNLYPLTFGGGTKVEIK
B10: 1251-F06 heavy chain paired with VL SEQ ID NO: 272 (antibody, V domains shown)
VH: QVQLVESGGGVVQPGRSLRLSCAASGFTFSSFGMHWVRQAPDKGLEWVAVIWYDGSNEYYADSVKGRFTISRDNSKNTLYLQMNSLRAEDTAVYYCARGGSLVTRGVYGLDVWGQGTTVTVSS
VL: B9 VL with V29I, S50A, R52S, Y53S, L93S
B11: 1251-C03 heavy chain paired with VL SEQ ID NO: 272 (antibody, V domains shown)
VH: QVQLVESGGGVVQPGRSLRLSCAASGFNFSSYGMHWVRQAPDKGLEWVAVIWYDGSIKNYADSVKGRFTISRDNSKNTLYLQMNSLRAEDTAVYYCARGGALMRGEFSGHDVWGQGTTVTVSS
VL: B9 VL with V29I, S50A, R52S, Y53S, L93S
B12: 1251-E06 heavy chain paired with VL SEQ ID NO: 272 (antibody, V domains shown)
VH: QVQLVESGGGVVQPGRSLRLSCAASGFTFDSYGMHWVRQAPDKGLEWVAVIWYDGSNKVYADSVKGRFTISRDNSKNTLYLQMNSLRAEDTAVYYCARGGMVGQGAMFGLDVWGQGTTVTVSS
VL: B9 VL with V29I, S50A, R52S, Y53S, L93S
B13: 1275-D10 light chain paired with HC 1251-A06 (SEQ ID NO: 310) (antibody, human IgG1, V domains shown)
VH: QVQLVESGGGVVQPGRSLRLSCAASGFDFSSYGMHWVRQAPDKGLEWVAVIWDDGSDRYYADSVKGRFTISRDNSKNTLYLQMNSLRAEDTAVYYCARGGTRVLGAIHGTDVWGQGTTVTVSS
VL: B9 VL with S30F, S50N, R52T, Y53Q, N92Y, L93Y
B14: 1275-D01 light chain paired with HC 1251-A06 (SEQ ID NO: 310) (antibody, human IgG1, V domains shown)
VH: B13 VH
VL: B9 VL with V29I, S30G, S31R, S50G, A51R, R52S, Y53S, L93I
B15: 1337-A04 light chain paired with VH 1251-A06 (SEQ ID NO: 236) (Fab, V domains shown)
VH: B13 VH
VL: B9 VL with G28D, V29I, S30G, S31R, L33V, S50G, R52S, Y53S, L93T
notes: 'in Fab format'
B16: 1337-A09 light chain paired with VH 1251-A06 (SEQ ID NO: 236) (Fab, V domains shown)
VH: B13 VH
VL: B9 VL with V29I, S30G, S50A, R52D, Y53R, N92H, L93T
notes: 'in Fab format'
B17: 1337-A10 light chain paired with VH 1251-A06 (SEQ ID NO: 236) (Fab, V domains shown)
VH: B13 VH
VL: B9 VL with V29I, L33V, S50G, A51S, R52S, Y53R, L93T
notes: 'in Fab format'
B18: 1337-A08 light chain paired with VH 1251-A06 (SEQ ID NO: 236) (Fab, V domains shown)
VH: B13 VH
VL: B9 VL with G28D, V29I, S30G, L33V, S50A, A51S, R52D, Y53S, L93S
notes: 'in Fab format'
B19: 1337-A05 light chain paired with VH 1251-A06 (SEQ ID NO: 236) (Fab, V domains shown)
VH: B13 VH
VL: B9 VL with V29I, S30G, S31R, L33V, S50G, R52D, Y53R, L93S
notes: 'in Fab format'
B20: 1337-A06 light chain paired with VH 1251-A06 (SEQ ID NO: 236) (Fab, V domains shown)
VH: B13 VH
VL: B9 VL with G28D, V29I, S30G, L33V, S50G, R52D, Y53R, L93S
notes: 'in Fab format'
B21: 1337-A07 light chain paired with VH 1251-A06 (SEQ ID NO: 236) (Fab, V domains shown)
VH: B13 VH
VL: B9 VL with V29I, L33V, S50G, R52S, Y53R, N92H, L93T
notes: 'in Fab format'

Each binder was assayed against T1, hu-CD74 antigen (R&D SYSTEMS catalog …) (assay: SPR (Biacore T200), captured on anti-human Fc, rhCD74 analyte).

Kd [nM] | koff [s⁻¹] | kon [M⁻¹ s⁻¹] | Binder
78.2 | 0.00908 | 116000 | B1
0.668 | 0.000651 | 975000 | B2
63.8 | 0.00824 | 129000 | B3
29 | 0.0274 | 946000 | B4

Molecular target: T1, hu-CD74 antigen (R&D SYSTEMS catalog …)
Assay: as above
Remark: another data set of the same source

Kd [nM] | koff [s⁻¹] | kon [M⁻¹ s⁻¹] | Binder
6.6 | 0.00119 | 179000 | B5
3.25 | 0.00636 | 1.95e+06 | B6
6.58 | 0.00177 | 268000 | B7
11.9 | 0.00286 | 241000 | B8

Molecular target: T1, hu-CD74 antigen (R&D SYSTEMS catalog …)
Assay: as above
Remark: another data set of the same source
Method: Kinetic binding experiments were performed at 25° C. using 1×HBS-EP+buffer. Kinetic data was collected by injecting test and control antibodies at concentrations of 10, 5 and 2.5 μg/mL for 12 s at a flow rate of 10 μl/min on flow cells 2, 3 and 4 respectively, followed by a buffer wash for 30 s at the same flow rate. Kinetic characterization of antibody samples was carried out with 8 concentrations of a 1:2 dilution series of rhCD74 antigen (R&D Systems) and 2 injections of 0 nM antigen (buffer only). […] Between each ligand capture and analyte binding cycle, regeneration was carried out using 2 injections of 3M MgCl₂ for 30 seconds at 30 μL/min, followed by a 30 second buffer wash step.

Kd [nM] | koff [s⁻¹] | kon [M⁻¹ s⁻¹] | Binder
0.26 | 0.000234 | 901000 | B9
0.363 | 0.000779 | 2.15e+06 | B10
1.63 | 0.00118 | 722000 | B11
0.376 | 0.000426 | 1.13e+06 | B12
0.559 | 0.000235 | 420000 | B13
0.721 | 0.000475 | 659000 | B14

Molecular target: T1, hu-CD74 antigen (R&D SYSTEMS catalog …)
Assay: as above
Remark: another data set of the same source

Kd [nM] | koff [s⁻¹] | kon [M⁻¹ s⁻¹] | Binder
0.158 | 0.000123 | 775000 | B15
0.135 | 0.000134 | 994000 | B16
0.172 | 0.000161 | 935000 | B17
0.178 | 0.000134 | 749000 | B18
0.179 | 0.000156 | 869000 | B19
0.184 | 0.000144 | 785000 | B20
0.18 | 0.000141 | 785000 | B21
